What was measured:
[1] = target: rabbit APOBEC3A fused to Cherry (rA3A-Cherry) (rabbit); assay: FRET or BRET; flow cytometry-based FRET (FRET-FACS); HEK-293T cells 48 hours after co-transfection of a Cherry-fusion and a GFP-fusion plasmid; percentage of FRET+ cells gated on Cherry+ and GFP+ cells
[2] = target: rabbit TRIB3 pseudokinase fused to GFP (rTRIB3-GFP) (rabbit); assay: as above

- percentage of fluorescent cells in the FRET channel [1]: 19%
- percentage of fluorescent cells in the FRET channel [2]: 11%
Substance: rabbit APOBEC3A fused to Cherry (rA3A-Cherry) (enzyme)
